This note sets out measurements from US20120052075A1 (H LUNDBECK A S, published 2012).

Assay [1] addresses soluble SorCS2 (extracellular domain of SorCS2), immobilized on the Biacore chip (Homo sapiens in the sequence list; not stated for the assay) (UniProt Q96PQ0). In words: SPR (BIAcore), soluble SorCS2 immobilized, propeptide at 20 nM and 50 nM. On the technique in general: In SPR one partner is held on a chip, and binding of the other changes the refractive index at the surface.

Assay [2] concerns the target T1, soluble SorCS2 (extracellular domain of SorCS2), immobilized on the Biacore chip (Homo sapiens in the sequence list; not …, UniProt Q96PQ0 51-1078).
T1 construct: also called immobilized soluble SorCS2
In words: SPR (BIAcore), soluble SorCS2 immobilized, BDNF at 10 nM and 20 nM.

Assay [3] deals with T1, soluble SorCS2 (extracellular domain of …). Briefly: SPR (BIAcore), soluble SorCS2 immobilized, p75 ECD at 1 uM. As to the method: FIG. 6: Physical interaction between SorCS2 and p75^NTR. A, HEK293 cells stably transfected with SorCS2 and p75^NTR encoding vectors were crosslinked with DSP (Pierce) and subsequently lysed. The cell lysate was incubated with antibody against SorCS2 bound to Gammabind beads (GE Healthcare). The precitated complexes were eluted from the washed beads with SDS loading buffer. […] The presence of p75^NTR and IgG heavy is indicated. HEK293 cells stably transfected with a p75^NTR encoding plasmid alone were used as negative control. B, surface plasmon resonance experiment (BIAcore) showing the direct interaction of soluble full-length extracellular domain of p75^NTR (p75 ECD) with immobilized soluble SorCS2. The p75 ECD concentration used was 1 μM.
HEK293 cells stably transfected with plasmids encoding SorCS2 and p75^NTR were crosslinked with DSP (Pierce) and subsequently lysed. The cell lysate was incubated with antibody against SorCS2 bound to Gammabind beads (GE Healthcare). Precipitated complexes were eluted from the washed beads with SDS loading buffer. […] A biosensor chip from Biacore (CM5, cat.no. BR-1000-14) was activated using the NHS/EDC method as described by the supplier followed by coating with SorCS2 (FIG. 6B).

T1 sequence (Q96PQ0 51-1078 S716P limits assumed): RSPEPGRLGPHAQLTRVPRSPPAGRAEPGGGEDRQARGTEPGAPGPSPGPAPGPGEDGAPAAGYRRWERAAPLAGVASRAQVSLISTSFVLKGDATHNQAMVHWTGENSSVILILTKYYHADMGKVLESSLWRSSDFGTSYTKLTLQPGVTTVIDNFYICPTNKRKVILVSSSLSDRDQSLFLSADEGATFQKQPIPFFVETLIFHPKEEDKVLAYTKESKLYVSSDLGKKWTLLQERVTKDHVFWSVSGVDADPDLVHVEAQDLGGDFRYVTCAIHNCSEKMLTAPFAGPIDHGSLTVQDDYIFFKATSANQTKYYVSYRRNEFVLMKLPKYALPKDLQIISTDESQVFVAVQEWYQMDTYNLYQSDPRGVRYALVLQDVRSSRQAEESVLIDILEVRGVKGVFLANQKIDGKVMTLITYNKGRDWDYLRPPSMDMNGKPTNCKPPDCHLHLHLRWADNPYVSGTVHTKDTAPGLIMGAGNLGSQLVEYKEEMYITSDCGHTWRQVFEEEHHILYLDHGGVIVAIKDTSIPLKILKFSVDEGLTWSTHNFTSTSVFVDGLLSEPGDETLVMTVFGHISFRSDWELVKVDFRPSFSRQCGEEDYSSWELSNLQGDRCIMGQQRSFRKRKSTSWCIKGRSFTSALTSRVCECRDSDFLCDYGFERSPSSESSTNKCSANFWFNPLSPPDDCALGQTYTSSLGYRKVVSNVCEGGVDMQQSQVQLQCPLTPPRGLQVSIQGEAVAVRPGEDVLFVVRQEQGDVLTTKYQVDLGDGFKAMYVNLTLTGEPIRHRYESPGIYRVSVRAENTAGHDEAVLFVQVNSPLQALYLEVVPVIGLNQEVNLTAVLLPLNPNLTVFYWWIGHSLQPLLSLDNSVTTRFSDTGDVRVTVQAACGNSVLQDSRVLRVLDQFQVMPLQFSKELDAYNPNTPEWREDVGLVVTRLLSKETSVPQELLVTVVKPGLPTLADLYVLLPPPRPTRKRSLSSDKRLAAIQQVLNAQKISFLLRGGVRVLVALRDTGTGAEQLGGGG
soluble SorCS2 (extracellular domain of SorCS2), immobilized on the Biacore chip (Homo sapiens in the sequence list; not stated for the assay), sequence (Q96PQ0 51-1078 S716P limits assumed): as above

With “BDNF propeptide (from UniProt P23560 19-128) (ligand)”, in assay [1], the dissociation constant Kd – broadly, the free concentration of one partner at which half of the binding sites on the other are occupied at equilibrium, for simple one-to-one binding – worked out at 15 nM.

B1: mature BDNF (ligand)
chain: HSDPARRGELSVCDSISEWVTAADKKTAVDMSGGTVTVLEKVPVSKGQLKQYFYETKCNPMGYTKEGCRGIDKRHWNSQCRTTQSYVRALTMDSKKRIGWRFIRIDTSCVCTLTIKRGR
In the case of B1, binding in assay [2] was put at a Kd of 5 nM.

B2: soluble full-length extracellular domain of p75^NTR (receptor)
chain: KEACPTGLYTHSGECCKACNLGEGVAQPCGANQTVCEPCLDSVTFSDVVSATEPCKPCTECVGLQSMSAPCVEADDAVCRCAYGYYQDETTGRCEACRVCEAGSGLVFSCQDKQNTVCEECPDGTYSDEANHVDPCLPCTVCEDTERQLRECTRWADAECEEIPGRWITRSTPPEGSDSTAPSTQEPEAPPEQDLIASTVAGVVTTVMGSSQPVVTRGTTDN
notes: Whole entry named; also called p75 ECD
For the molecule B2, the Kd in assay [3] was around 10 nM.
